This note sets out measurements from article doi:10.1101/2020.04.07.030676.

In this assay the target is soluble αβ-tubulin heterodimer (bovine) (UniProt Q6B856). In words: ITC.

B1: MEKK1 TOG domain, MEKK1(542–888) (domain or fragment)
chain: THYGTQQIPPAYKDLAEPWIQVFGMELVGCLFSRNWNVREMALRRLSHDVSGALLLANGESTGNSGGSSGSSPSGGATSGSSQTSISGDVVEACCSVLSMVCADPVYKVYVAALKTLRAMLVYTPCHSLAERIKLQRLLQPVVDTILVKCADANSRTSQLSISTLLELCKGQAGELAVGREILKAGSIGIGGVDYVLNCILGNQTESNNWQELLGRLCLIDRLLLEFPAEFYPHIVSTDVSQAEPVEIRYKKLLSLLTFALQSIDNSHSMVGKLSRRIYLSSARMVTTVPHVFSKLLEMLSVSSSTHFTRMRRRLMAIADEVEIAEAIQLGVEDTLDGQQDSFLQAS
As to B1, the Kd was found to be 630 nM and the stoichiometry N was determined as 1.

Usually Kd stands for the equilibrium constant for the complex coming apart. A word on the stoichiometry N: it is the number of molecules, sites or subunits per partner or assembly.
